T1: amphyphisin SH3 (AMPH_HUMAN), P49418
T1 chain: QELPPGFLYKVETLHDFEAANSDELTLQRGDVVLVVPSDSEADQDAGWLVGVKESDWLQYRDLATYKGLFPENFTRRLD


Experiments:
[1] = target: T1, amphyphisin SH3 (AMPH_HUMAN), P49418; assay: SPOT array
[2] = target: endophilin SH3 (SH3G2_HUMAN), Q99962; assay: SPOT array

| normalised SPOT signal, Boehringer light units (BLU); mean over the file's lines of this peptide [1] | normalised SPOT signal, Boehringer light units (BLU); mean over the file's lines of this peptide [2] | Binder |
| --- | --- | --- |
| 79.9 | 508 | PQPPPRRPWASRVL [O94850 45-58] |
| 513 | 3390 | PQPPPPKPPRPQPP [P35556 29-43] |
| 47.3 | 58.8 | PREGPGRPPLDGRD [Q9H8B2 127-141] |
| 49 | 146 | ASGHIKRPMNAFMV [P35716 45-58] |
| 98.2 | 194 | PRAPLHRPQKPREG [Q9P1Y6 1426-1439] |
| 38.1 | 51 | ASNQPKRPPAAPEN [P48634 118-131] |
| 17.3 | 30.1 | PPRKIKRPKRKMYR [Q96PV3 296-309] |
| 225 | 1540 | PRPPPGKPPTRPGV [O94932 475-489] |
| 1850 | 508 | PRGVLPRPSRVLVL [Q9NYA1 7-20] |
| 829 | 835 | PPWVPWRPPSSAAV [Q9UN47 31-45] |
| 137 | 1900 | PRPGPSRPPPVPAP [Q9Y2G0 18-32] |
| 32.3 | 519 | PREFPFKPPSIYMI [Q96T84 67-81] |
| 6470 | 17600 | PRAVPARPPTRPRF [Q8TE87 150-164] |
| 2770 | 7560 | PRPLPPRPPAAQPR [P58840 142-156] |
| 71.5 | 2730 | PPSAPRRPPVYYKF [O95696 129-142] |
| 1540 | 3120 | PRPLPPRPPAAQPP [P10323 331-345] |
| 1860 | 4660 | PRLRPMRPPPPPPA [Q9NXX8 675-689] |
| 373 | 94.1 | PRANPRRPPRAIVP [Q8WYW1 101-114] |
| 2800 | 97 | PQPGFRRPARPETQ [Q16624 63-76] |
| 193 | 394 | PPYGPSRPDKKQRM [Q9HA17 357-370] |
| 72.2 | 206 | PRPRPRRPRQLTRA [Q9HAM8 17-30] |

| normalised SPOT signal, Boehringer light units (BLU); mean over the file's lines of this peptide [1] | normalised SPOT signal, Boehringer light units (BLU); mean over the file's lines of this peptide [2] | Binder |
| --- | --- | --- |
| 41.1 | 926 | ASLFPKRPALEPVR [Q9Y2X7 686-699] |
| 109 | 57.5 | PRKYPNRPSKTPVH [P11161 323-336] |
| 46.8 | 221 | PRKAPRRPGPGMSG [Q92611 83-96] |
| 131 | 4220 | PQGPPRRPPPHILD [Q9P2A8 24-38] |
| 640 | 2340 | PRKLPSRPPPHYPG [O75923 185-199] |
| 4300 | 14300 | PPTRPSRPWRDLPE [Q9UIG4 65-78] |
| 32.1 | 1100 | PREPPRRPAFLPVG [Q13387 310-323] |
| 20.2 | 4.5 | PQEHPKRPVLGLES [O95862 118-131] |
| 56.3 | 2520 | PPWGPFRPPYSIFQ [BAC05210 58-72] |
| 6110 | 17800 | PPVVPRRPPAHISS [Q9NTY8 3-17] |
| 8950 | 41100 | PPTPPPRPQKTHSR [O43428 338-351] |
| 14900 | 20300 | PPSRPSRPPSHPSA [Q99700 586-600] |
| 39.9 | 37.8 | PQSSLRRPDPGRLP [O95613 3094-3107] |
| 7480 | 6550 | PPVRPARPPGPLVT [Q8WYX3 74-88] |
| 8780 | 12700 | PPQVPSRPTRAPPS [Q9UQ16 664-677] |
| 321 | 5200 | PQQFPSRPPPPQPK [Q13443 782-796] |
| 105 | 127 | PPSGPLRPPATISP [Q9H4B5 83-97] |
| 79.9 | 51.5 | PRKYPNRPSKTPLH [Q06889 258-271] |
| 1550 | 221 | PRAWPRRPRRDYSI [O43385 549-562] |
| 848 | 5360 | ASHPPPRPPKHPSV [BAC05194 549-563] |
| 27.5 | 44.1 | PQTELRRPGQLIDE [Q9H1Y1 836-849] |
